This is an account of results in publication PMC11117822.

The experiment concerns the target poly-L-arginine hydrochloride. In words: optical reflectometry; PARG layer adsorbed on silica in a stagnation point flow cell; HSA 5 mg L^-1 flowed over it at Q = 8.33 x 10^-3 cm^3 s^-1; 150 mM NaCl, pH 4.0; 298 K.

Take “human serum albumin (from UniProt P02768 25-609)”: the plateau coverage is 0.1 mg m^−2.
